Test results published in the RNAGym collection of RNA variant scans (doi:10.7554/elife.90254).

B1: LINE1-full (parent)
chain: UACGUAGGUGGUUUUCCCCUGAUAGUGCUAAGGGGGCCUGGAAGUUUGGACUGGGCAGAGCUCAACACAGCGUGGCAAAGUGGCUGUGGCUAGACUGCCUCUCUGGAUUCCUCGUCACUCAGCAGGGCAUCUCUGAGAGAAAUGCC

Variants of: B1
Assay: self-cleavage, relative activity (ratio to wild type); higher = more cleavage; in vitro, sequencing; the parent is a self-cleaving ribozyme

Row | Variant | self-cleavage
1 | U23A U46C | 1.57
2 | U23A U46G | 0.35
3 | A24U U47A | 0.99
4 | U23C G75C | 1.23
5 | U23G A42G | 1.46
6 | A22U G144A | 1.08
7 | A24G U81A | 0.47
8 | A24U U104A | 0.65
9 | A24U U104C | 1.25
10 | A24G C116U | 0.65
11 | U23A U47A | 1.91
12 | U23C C56A | 0.07
13 | U23C G126A | 1.18
14 | A24U U45C | 1.19
15 | A24U U45A | 0.82
16 | A24U A77U | 0.93
17 | A24U A77G | 2.22
18 | U23A C118U | 1.22
19 | A24U C116A | 1.7
20 | A24U U115A | 1.54
21 | A24U U115C | 1.92
22 | A22U A92U | 0.63
23 | A22U A92G | 0.05
24 | U23C U26G | 1.45

Row | Variant | self-cleavage
25 | U23A U39C | 0.65
26 | U23A U109C | 1.06
27 | U23A U109A | 1.33
28 | U23C U112C | 1.57
29 | A22U A140G | 0.71
30 | U23C A142G | 1.61
31 | U23C A42G | 1.18
32 | U23C A42C | 0
33 | A24G A77C | 2.04
34 | A24G A77G | 1.41
35 | A22U U85C | 0.26
36 | A24U A121U | 0.55
37 | A24U A129G | 0.75
38 | U23C A121C | 1.9
39 | A24U U46C | 1.54
40 | A24G A92U | 1.34
41 | A24G G75A | 1.02
42 | U23A U87A | 0.09
43 | U23C U91A | 0.8
44 | A24U U108A | 1.51
45 | A24U U108C | 1.33
46 | A24G U108C | 1.68
47 | A24G U108A | 1.49
48 | A24G G139U | 2.56

Row | Variant | self-cleavage
49 | A24G G139A | 1.3
50 | A24U A107U | 1.64
51 | A24U A107G | 2.24
52 | U23C C113U | 0.88
53 | A24C U109A | 2.55
54 | U23C G114C | 2.07
55 | A24G A142G | 1.1
56 | U23C U62A | 0.06
57 | U23A U52C | 0.75
58 | A22U U134A | 1.15
59 | U23A C98G | 0.14
60 | A24C A77G | 2.76
61 | U23C U115A | 1.23
62 | U23C U115C | 1.16
63 | A24G A65C | 0.16
64 | A24G A69U | 0.21
65 | A22U A129U | 1.47
66 | U23G U46A | 1.3
67 | U23A A79G | 1.31
68 | U23A A117C | 1.6
69 | A24G | 1.17
70 | A24U | 1.25
71 | A24C | 1.62
72 | A24U C51U | 0.84

Row | Variant | self-cleavage
73 | A22U U46C | 1.34
74 | A24G A78U | 2.33
75 | A24G A78G | 1.19
76 | U23A C120A | 0.82
77 | A24G U85G | 0.1
78 | A24G U85A | 0.13
79 | A24G C123U | 0.71
80 | A24C G139A | 1.45
81 | A22U A78G | 1.54
82 | A24U A64U | 0.35
83 | A24U A64G | 0.23
84 | A24C A121G | 2.59
85 | A24U U112C | 1.28
86 | A24U U85C | 0.15
87 | A24U C37G | 0.82
88 | U23A U143A | 2.26
89 | U23A U130A | 1.52
90 | U23A U130C | 1.44
91 | U23C A69G | 1.2
92 | A24U A117G | 0.54
93 | A22U U108A | 1.08
94 | A24U A92G | 0.08
95 | A24G U109C | 0.76
96 | A24G A138G | 1.07

Row | Variant | self-cleavage
97 | A22U U109C | 0.91
98 | A22U U109A | 1.34
99 | A24G A121U | 2.93
100 | A24G A121C | 2.3
101 | A22U U119C | 1.52
102 | A22U U119A | 1.46
103 | U23C G54A | 0.51
104 | A24G C128A | 0.65
105 | A24G G35A | 0.69
106 | U23A A65G | 0.1
107 | U23C U39A | 1.2
108 | U23C U39C | 0.87
109 | U23A U100C | 1.26
110 | U23A U100A | 0.86
111 | A24G U119C | 0.83
112 | A22U U52C | 1.73
113 | A22U U102C | 1.06
114 | A24G U46C | 1.74
115 | A24G U46G | 1.28
116 | A24G A64U | 0.47
117 | A24C G49A | 0.82
118 | U23C A117C | 1.51
119 | A24G U100C | 1.32
120 | U23C C51U | 0.97

Row | Variant | self-cleavage
121 | U23C C51A | 0.98
122 | A24G A50U | 1.55
123 | A22U A117U | 1.36
124 | A24G U47C | 1.05
125 | U23C A138U | 1.84
126 | A24C G114A | 0.68
127 | U23A U112C | 1.18
128 | U23C C101U | 1.31
129 | U23C U132C | 1.58
130 | U23C U132A | 1.86
131 | A24U G80C | 1.41
132 | A24G A42G | 1.11
133 | U23A U102A | 1.18
134 | U23A U102C | 2.11
135 | A24G U143C | 1.12
136 | U23C G58A | 0.1
137 | A24G U45C | 1.12
138 | A24G U45G | 0
139 | A24U G86U | 0.13
140 | U23A A78G | 1.14
141 | A24U A57C | 0
142 | A24U A57U | 0.16
143 | U23C A136U | 1.19
144 | U23G U112C | 1.07

Row | Variant | self-cleavage
145 | U23C A94G | 0.37
146 | A24G U62A | 0.07
147 | A24G U62C | 0.14
148 | U23C U52A | 1.39
149 | A24C C51U | 1.37
150 | U23C A77U | 1.36
151 | U23C A77G | 1.24
152 | A24G A57G | 1.14
153 | A24G A57U | 0.27
154 | A24G U115A | 1.45
155 | A24G U115C | 1.46
156 | U23A U62A | 0.05
157 | U23A U62C | 0
158 | A24U A59G | 0.06
159 | U23A U134G | 0.89
160 | A24C A57G | 1.17
161 | A24U U91C | 0.45
162 | A24G G86A | 0.12
163 | U23C A24G | 1.48
164 | A22U U45A | 0.83
165 | A24G A67G | 0.45
166 | U23A C146U | 1.27
167 | A24U A31U | 1.09
